Laboratory results as given in patent publication US20220016130A1 (MAYO FOUNDATION FOR MEDICAL EDUCATION AND RESEARCH, published 2022).

Biological target: T1, BRD4 (human, UniProt O60885 1-1362)
T1 construct: One entry covers endogenous, Flag-tagged and HA-tagged full-length BRD4; also called FLAG-BRD4; Flag-BRD4
Assay: co-IP from 293T cells transfected with Flag-tagged USPs and HA-BRD4
Protocol: To immunoprecipitate the ectopically expressed FLAG-tagged proteins, transfected cells were lysed 24 hours post-transfection in BC100 buffer. The whole-cell lysates were immunoprecipitated with the monoclonal anti-FLAG antibody-conjugated M2 agarose beads (Sigma-Aldrich) at 4° C. overnight. After three washes with lysis buffer, followed by two washes with BC100 buffer, the bound proteins were eluted using FLAG-Peptide (Sigma-Aldrich) prepared in BC100 for 3 hours at 4° C. The eluted protein sample was resolved by SDS-PAGE. To immunoprecipitate the endogenous proteins, cells were lysed with 1× cell lysis buffer (Cell Signaling Technology), and the lysate was centrifuged. The supernatant was precleared with protein A/G beads (Sigma-Aldrich) and incubated with the indicated antibody and protein A/G beads at 4° C. overnight. Beads were washed five times with lysis buffer and resuspended in sample buffer and analyzed by SDS-PAGE.

| binding result | Binder |
| --- | --- |
| no binding | Flag-USP13 (enzyme, UniProt Q92995 1-863, looked up, not shown: Flag tag) MQRRGALFGMPGGSGGRKMAAGDIGELLVPHMPTIRVPRSGDRVYKNECAFSYDSPNSEGGLYVCMNTFLAFGREHVERHFRKTGQSVYMHLKRHVREKVRGASGGALPKRRNSKIFLDLDTDDDLNSDDYEYEDEAKLVIFPDHYEIALPNIEELPALVTIACDAVLSSKSPYRKQDPDTWENELPVSKYANNLTQLDNGVRIPPSGWKCARCDLRENLWLNLTDGSVLCGKWFFDSSGGNGHALEHYRDMGYPLAVKLGTITPDGADVYSFQEEEPVLDPHLAKHLAHFGIDMLHMHGTENGLQDNDIKLRVSEWEVIQESGTKLKPMYGPGYTGLKNLGNSCYLSSVMQAIFSIPEFQRAYVGNLPRIFDYSPLDPTQDFNTQMTKLGHGLLSGQYSKPPVKSELIEQVMKEEHKPQQNGISPRMFKAFVSKSHPEFSSNRQQDAQEFFLHLVNLVERNRIGSENPSDVFRFLVEERIQCCQTRKVRYTERVDYLMQLPVAMEAATNKDELIAYELTRREAEANRRPLPELVRAKIPFSACLQAFSEPENVDDFWSSALQAKSAGVKTSRFASFPEYLVVQIKKFTFGLDWVPKKFDVSIDMPDLLDINHLRARGLQPGEEELPDISPPIVIPDDSKDRLMNQLIDPSDIDESSVMQLAEMGFPLEACRKAVYFTGNMGAEVAFNWIIVHMEEPDFAEPLTMPGYGGAASAGASVFGASGLDNQPPEEIVAIITSMGFQRNQAIQALRATNNNLERALDWIFSHPEFEEDSDFVIEMENNANANIISEAKPEGPRVKDGSGTYELFAFISHMGTSTMSGHYICHIKKEGRWVIYNDHKVCASERPPKDLGYMYFYRRIPS |
| no binding | Flag-USP49 (enzyme, UniProt Q70CQ1 1-688, looked up, not shown: Flag tag) MDRCKHVGRLRLAQDHSILNPQKWCCLECATTESVWACLKCSHVACGRYIEDHALKHFEETGHPLAMEVRDLYVFCYLCKDYVLNDNPEGDLKLLRSSLLAVRGQKQDTPVRRGRTLRSMASGEDVVLPQRAPQGQPQMLTALWYRRQRLLARTLRLWFEKSSRGQAKLEQRRQEEALERKKEEARRRRREVKRRLLEELASTPPRKSARLLLHTPRDAGPAASRPAALPTSRRVPAATLKLRRQPAMAPGVTGLRNLGNTCYMNSILQVLSHLQKFRECFLNLDPSKTEHLFPKATNGKTQLSGKPTNSSATELSLRNDRAEACEREGFCWNGRASISRSLELIQNKEPSSKHISLCRELHTLFRVMWSGKWALVSPFAMLHSVWSLIPAFRGYDQQDAQEFLCELLHKVQQELESEGTTRRILIPFSQRKLTKQVLKVVNTIFHGQLLSQVTCISCNYKSNTIEPFWDLSLEFPERYHCIEKGFVPLNQTECLLTEMLAKFTETEALEGRIYACDQCNSKRRKSNPKPLVLSEARKQLMIYRLPQVLRLHLKRFRWSGRNHREKIGVHVVFDQVLTMEPYCCRDMLSSLDKETFAYDLSAVVMHHGKGFGSGHYTAYCYNTEGGFWVHCNDSKLNVCSVEEVCKTQAYILFYTQRTVQGNARISETHLQAQVQSSNNDEGRPQTFS |
